In US6949366 (Amgen, dated 2005):
Each block holds one binder with its values, some of them ahead of it.

Legend:
[1] = biological target: T1, soluble rat elk/Fc fusion protein (rat; human, UniProt P09759 18-540; P01857 99-330 = IgG part, limits assumed); assay: indirect Scatchard binding: elk/Fc titrated on CV1-EBNA-1 cells expressing hek-L C6, detected with 125I mouse anti-human IgG; biphasic, first component
T1 construct: extracellular domain;domain: Fc region; The junction between elk and Fc is not described
T1 sequence (P09759 other isoform, or with tags, fused parts or gaps limits assumed): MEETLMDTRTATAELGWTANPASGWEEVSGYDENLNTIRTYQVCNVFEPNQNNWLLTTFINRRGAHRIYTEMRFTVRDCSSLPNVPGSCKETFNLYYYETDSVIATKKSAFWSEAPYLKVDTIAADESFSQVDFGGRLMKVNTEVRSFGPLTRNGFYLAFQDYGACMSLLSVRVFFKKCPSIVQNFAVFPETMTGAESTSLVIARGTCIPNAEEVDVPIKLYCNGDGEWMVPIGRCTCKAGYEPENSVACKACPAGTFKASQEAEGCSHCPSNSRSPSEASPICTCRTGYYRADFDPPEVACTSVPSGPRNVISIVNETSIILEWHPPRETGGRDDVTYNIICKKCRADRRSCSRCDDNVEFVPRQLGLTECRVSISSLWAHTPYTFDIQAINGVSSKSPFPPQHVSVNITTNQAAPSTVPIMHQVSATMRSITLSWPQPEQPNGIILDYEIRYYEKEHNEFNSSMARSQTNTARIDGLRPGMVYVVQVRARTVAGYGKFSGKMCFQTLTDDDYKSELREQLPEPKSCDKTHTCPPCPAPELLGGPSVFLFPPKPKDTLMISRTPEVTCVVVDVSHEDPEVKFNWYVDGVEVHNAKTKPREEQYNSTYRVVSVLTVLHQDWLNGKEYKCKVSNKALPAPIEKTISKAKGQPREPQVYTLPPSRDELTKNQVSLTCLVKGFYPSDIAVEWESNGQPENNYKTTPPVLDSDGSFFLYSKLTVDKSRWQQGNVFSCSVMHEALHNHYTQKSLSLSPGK

[2] = biological target: T1, soluble rat elk/Fc fusion protein; assay: indirect Scatchard binding: elk/Fc titrated on CV1-EBNA-1 cells expressing hek-L C6, detected with 125I mouse anti-human IgG; biphasic, second component
[3] = biological target: T1, soluble rat elk/Fc fusion protein; assay: indirect Scatchard binding: elk/Fc titrated on CV1-EBNA-1 cells expressing elk-L, detected with 125I mouse anti-human IgG
[4] = biological target: T1, soluble rat elk/Fc fusion protein; assay: indirect Scatchard binding: elk/Fc titrated on CV1-EBNA-1 cells expressing hek-L A2, detected with 125I mouse anti-human IgG; biphasic, first component
[5] = biological target: T1, soluble rat elk/Fc fusion protein; assay: indirect Scatchard binding: elk/Fc titrated on CV1-EBNA-1 cells expressing hek-L A2, detected with 125I mouse anti-human IgG; biphasic, second component
[6] = biological target: T1, soluble rat elk/Fc fusion protein; assay: indirect Scatchard binding: elk/Fc titrated on CV1-EBNA-1 cells expressing B61, detected with 125I mouse anti-human IgG; biphasic, second component
[7] = biological target: T1, soluble rat elk/Fc fusion protein; assay: indirect Scatchard binding: elk/Fc titrated on CV1-EBNA-1 cells expressing B61; biphasic, first component as the text prints it (differs from the table's cell)
[8] = biological target: T1, soluble rat elk/Fc fusion protein; assay: indirect Scatchard binding: elk/Fc titrated on CV1-EBNA-1 cells expressing B61, detected with 125I mouse anti-human IgG; biphasic, first component (the cell prints 23, the text at paragraph 137 prints 2.3)

- Ka [1]: 1.3e+08 M⁻¹
- Ka [2]: 5.4e+07 M⁻¹
B1: human hek ligand encoded by clone C6 (ligand)
chain: GSSLRHVVYWNSSNPRLLRGDAVVELGLNDYLDIVCPHYEGPGPPEGPETFALYMVDWPGYESCQAEGPRAYKRWVCSLPFGHVQFSEKIQRFTPFSLGFEFLPGETYYYISVPTPESSGQCLRLQVSVCCKERKSESAHPVGSPGES
modifications: GPI anchor at the C-terminus after cleavage (likely on Ser 148 in the filing's numbering; site not determined)
notes: Expressed from the full-length clone C6 cDNA in pDC410 on CV1-EBNA-1 cells and held on the membrane by a GPI anchor; also called hek-L C6; hek ligand C6

- Ka [4]: 2.7e+08 M⁻¹
- Ka [5]: 3.5e+07 M⁻¹
B3: human hek ligand encoded by clone A2 (ligand)
chain: LLAQGPGGALGNRHAVYWNSSNQHLRREGYTVQVNVNDYLDIYCPHYNSSGVGPGAGPGPGGGAEQYVLYMVSRNGYRTCNASQGFKRWECNRPHAPHSPIKFSEKFQRYSAFSLGYEFHAGHEYYYISTPTHNLHWKCLRMKVFVCCASTSHSGEKPVPTLPQFTMGPNVKINVLEDFEGENPQVPKLEKSIS
modifications: GPI anchor at the C-terminus after cleavage (likely on Ser 194 in the filing's numbering; site not determined)
notes: Expressed from the full-length clone A2 cDNA in pDC410 on CV1-EBNA-1 cells and held on the membrane by a GPI anchor; also called hek-L A2; hek ligand A2

More lines, now with the values behind:

B2: human elk ligand (ligand, UniProt P98172 28-346, looked up)
chain: LAKNLEPVSWSSLNPKFLSGKGLVIYPKIGDKLDIICPRAEAGRPYEYYKLYLVRPEQAAACSTVLDPNVLVTCNRPEQEIRFTIKFQEFSPNYMGLEFKKHHDYYITSTSNGSLEGLENREGGVCRTRTMKIIMKVGQDPNAVTPEQLTTSRPSKEADNTVKMATQAPGSRGSLGDSDGKHETVNQEEKSGPGASGGSSGDPDGFFNSKVALFAAVGAGCVIFLLIIIFLTVLLLKLRKRHRKHTQQRAAALSLSTLASPKGGSGTAGTEPSDIIIPLRTTENNYCPHYEKVSGDYGHPVYIVQEMPPQSPANIYYKV
notes: whole, on cells
- Ka [3]: 1.08e+09 M⁻¹

B4: human B61 (ligand, UniProt P20827 19-182, looked up)
chain: DRHTVFWNSSNPKFRNEDYTIHVQLNDYVDIICPHYEDHSVADAAMEQYILYLVEHEEYQLCQPQSKDQVRWQCNRPSAKHGPEKLSEKFQRFTPFTLGKEFKEGHSYYYISKPIHQHEDRCLRLKVTVSGKITHSPQAHDNPQEKRLAADDPEVRVLHSIGHS
notes: whole, on cells
- Ka [6]: 7e+07 M⁻¹
- Ka [7]: 2.3e+08 M⁻¹
- Ka [8]: 2.3e+09 M⁻¹
